Laboratory results: publication PMC6862464, “Structural Insights into AQP2 Targeting to Multivesicular Bodies” (International Journal of Molecular Sciences, 2019)
Substitutions are numbered along the chain they refer to.

B1: full-length human lysosomal trafficking regulator-interacting protein 5 (FL-LIP5) (natural protein)
chain: MAALAPLPPLPAQFKSIQHHLRTAQEHDKRDPVVAYYCRLYAMQTGMKIDSKTPECRKFLSKLMDQLEALKKQLGDNEAITQEIVGCAHLENYALKMFLYADNEDRAGRFHKNMIKSFYTASLLIDVITVFGELTDENVKHRKYARWKATYIHNCLKNGETPQAGPVGIEEDNDIEENEDAGAASLPTQPTQPSSSSTYDPSNMPSGNYTGIQIPPGAHAPANTPAEVPHSTGVASNTIQPTPQTIPAIDPALFNTISQGDVRLTPEDFARAQKYCKYAGSALQYEDVSTAVQNLQKALKLLTTGREDYDIPTT
notes: spacer between the last LIP5 residue and the TEV protease site that precedes the His tag; same tag, TEV site and linker as ND-LIP5; No TEV cleavage is described; also called full-length LIP5; wild-type LIP5; source: E. coli BL21*(DE3), purified (HisTrap, SEC)
B2: N-terminal domain of human LIP5 (ND-LIP5, residues 1-162) (domain or fragment)
chain: MAALAPLPPLPAQFKSIQHHLRTAQEHDKRDPVVAYYCRLYAMQTGMKIDSKTPECRKFLSKLMDQLEALKKQLGDNEAITQEIVGCAHLENYALKMFLYADNEDRAGRFHKNMIKSFYTASLLIDVITVFGELTDENVKHRKYARWKATYIHNCLKNGETPDYDIPTT
notes: LIP5, human, N-terminal domain, residues 1-162; spacer between the last ND-LIP5 residue and the TEV protease site that precedes the His tag; TEV site between spacer and His tag; no cleavage described; source: E. coli BL21*(DE3), purified (HisTrap, SEC)
B3: human AQP2 E241A (natural protein, UniProt P41181 1-271, looked up)
chain: MWELRSIAFSRAVFAEFLATLLFVFFGLGSALNWPQALPSVLQIAMAFGLGIGTLVQALGHISGAHINPAVTVACLVGCHVSVLRAAFYVAAQLLGAVAGAALLHEITPADIRGDLAVNALSNSTTAGQAVTVELFLTLQLVLCIFASTDERRGENPGTPALSIGFSVALGHLLGIHYTGCSMNPARSLAPAVVTGKFDDHWVFWIGPLVGAILGSLLYNYVLFPPAKSLSERLAVLKGLAPDTDWEEREVRRRQSVELHSPQSLPRGTKA
modifications: cysteine residues labeled with C5 maleimide Alexa 488; dephosphorylated with alkaline phosphatase before labeling
notes: Mutant of m1; source: Pichia pastoris, purified (HisTrap, SEC) in OGNG; not shown: His-tag, N-terminal, kept
B4: human AQP2 L234A (natural protein, UniProt P41181 1-271, looked up)
chain: B3 chain with L234A, A241E
modifications: cysteine residues labeled with C5 maleimide Alexa 488; dephosphorylated with alkaline phosphatase before labeling
notes: as for B3
B5: human AQP2 L237A (natural protein, UniProt P41181 1-271, looked up)
chain: B3 chain with L237A, A241E
modifications: cysteine residues labeled with C5 maleimide Alexa 488; dephosphorylated with alkaline phosphatase before labeling
notes: as for B3
B6: human AQP2 R233A (natural protein, UniProt P41181 1-271, looked up)
chain: B3 chain with R233A, A241E
modifications: cysteine residues labeled with C5 maleimide Alexa 488; dephosphorylated with alkaline phosphatase before labeling
notes: as for B3
B7: human AQP2 K238A (natural protein, UniProt P41181 1-271, looked up)
chain: B3 chain with K238A, A241E
modifications: cysteine residues labeled with C5 maleimide Alexa 488; dephosphorylated with alkaline phosphatase before labeling
notes: as for B3
B8: human AQP2 L230A (natural protein, UniProt P41181 1-271, looked up)
chain: B3 chain with L230A, A241E
modifications: cysteine residues labeled with C5 maleimide Alexa 488; dephosphorylated with alkaline phosphatase before labeling
notes: as for B3

Biological target: T1, human aquaporin 2 (AQP2), wild-type (human, UniProt P41181 1-271, cysteine residues labeled with C5 maleimide Alexa 488; dephosphorylated with alkaline phosphatase before labeling)
T1 construct: concentrations and molar ratios seem to count monomers; His-tag is called uncleavable; also called WT; labeled AQP2; source: Pichia pastoris, purified (HisTrap, SEC) in OGNG; not shown: His-tag, N-terminal, kept
T1 sequence (looked up): B3 chain with A241E
Assay: other fluorescence titration; stoichiometry: labeled AQP2 kept 20 times above the Kd, LIP5 added to a molar LIP5:AQP2 ratio between 0 and 2; saturation point from the intercept of two linear fits; same buffers
Details: both partners purified

**Q.** B1 was tested. Which “stoichiometry N” value did it give?
**A.** 0.42 molar ratio FL-LIP5:AQP2

**Q.** B2 was tested. Which “stoichiometry N” value did it give?
**A.** 0.29 molar ratio ND-LIP5:AQP2

Biological target: T1, human aquaporin 2 (AQP2), wild-type
Assay: other fluorescence titration; Alexa 488-labeled, dephosphorylated AQP2 (around 1 uM) in the cuvette, titrated with unlabeled LIP5; total fluorescence; 20 mM Tris-HCl pH 8, 300 mM NaCl, 0.2% OGNG; triplicate titrations
Details: both partners purified

**Q.** With B2 as the binder, how does the Kd read?
**A.** 64.4 nM

Biological target: B1
Assay: as above
Details: both partners purified

**Q.** With B3 as the binder, how does the Kd read?
**A.** 700 nM

**Q.** For B4, which Kd is on record?
**A.** 126 nM

**Q.** B5 was tested. Which Kd did it give?
**A.** 535 nM

**Q.** How did the Kd turn out when B6 was run?
**A.** 487 nM

**Q.** For B7, which Kd is on record?
**A.** 552 nM

**Q.** With B8 as the binder, how does the Kd read?
**A.** 156 nM
